Source: the supplement of paper PMC5998384

Key:
[1] = test system: HeLa Kyoto; assay: solubility in G1/S (NP-40 vs SDS abundance) (log2 ratio); higher = more soluble; settings: cell cycle stage: G1/S
[2] = test system: HeLa Kyoto; assay: solubility change mitosis vs G1/S (difference of NP-40 vs SDS log2 ratios) (log2 ratio difference); higher = more soluble in mitosis
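For solubility change mitosis vs G1/S (difference of NP-40 vs SDS log2 ratios) in this document: synchronized HeLa Kyoto cells (double thymidine block for G1/S, nocodazole release for mitosis), protein amounts in NP-40 versus SDS lysates quantified by mass spectrometry, three biological replicates.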
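For solubility in G1/S (NP-40 vs SDS abundance) in this document: HeLa Kyoto cells arrested at G1/S by double thymidine block, proteins quantified by TMT10plex mass spectrometry in mild NP-40 versus SDS extracts, three biological replicates.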

Sequence of POMGNT1 (chain, as listed by the source): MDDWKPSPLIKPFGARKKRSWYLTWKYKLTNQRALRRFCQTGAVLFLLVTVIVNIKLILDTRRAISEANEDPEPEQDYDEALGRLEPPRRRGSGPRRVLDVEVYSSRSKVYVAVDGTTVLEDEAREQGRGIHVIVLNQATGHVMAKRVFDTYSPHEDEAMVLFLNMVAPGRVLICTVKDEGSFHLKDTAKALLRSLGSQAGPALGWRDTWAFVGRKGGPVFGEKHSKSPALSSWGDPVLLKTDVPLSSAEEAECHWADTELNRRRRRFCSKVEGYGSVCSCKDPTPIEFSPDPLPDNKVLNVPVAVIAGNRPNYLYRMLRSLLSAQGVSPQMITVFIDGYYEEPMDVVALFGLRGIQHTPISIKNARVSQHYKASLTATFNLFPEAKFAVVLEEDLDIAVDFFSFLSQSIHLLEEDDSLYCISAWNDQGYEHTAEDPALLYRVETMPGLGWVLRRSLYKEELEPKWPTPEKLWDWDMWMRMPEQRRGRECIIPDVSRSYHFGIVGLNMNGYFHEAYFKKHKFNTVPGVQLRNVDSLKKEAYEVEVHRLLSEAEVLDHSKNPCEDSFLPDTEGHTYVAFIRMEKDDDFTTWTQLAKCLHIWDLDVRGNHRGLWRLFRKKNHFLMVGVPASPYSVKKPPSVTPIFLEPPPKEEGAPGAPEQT

Substance | solubility in G1/S (log2) [1] | solubility change mitosis (log2) [2]
MPDQALQQMLDRSCWVCFATDEDDRTAEWVRPCRCRGSTKWVHQACLQRWVDEKQRGNSTARVACPQCNAEYLIVFPKLGPVVYVLDLADRLISKACPFAAAGIMVGSIYWTAVTYGAVTVMQVVGHKEGLDVMERADPLFLLIGLPTIPVMLILGKMIRWEDYVLRLWRKYSNKLQILNSIFPGIGCPVPRIPAEANPLADHVSATRILCGALVFPTIATIVGKLMFSSVNSNLQRTILGGIAFVAIKGAFKVYFKQQQYLRQAHRKILNYPEQEEA [MARCH5] | -0.272 | 0.0312
MVRKLKFHEQKLLKQVDFLNWEVTDHNLHELRVLRRYRLQRREDYTRYNQLSRAVRELARRLRDLPERDQFRVRASAALLDKLYALGLVPTRGSLELCDFVTASSFCRRRLPTVLLKLRMAQHLQAAVAFVEQGHVRVGPDVVTDPAFLVTRSMEDFVTWVDSSKIKRHVLEYNEERDDFDLEA [IMP3] | -2.11 | 1.1
MAEGDAGSDQRQNEEIEAMAAIYGEEWCVIDDCAKIFCIRISDDIDDPKWTLCLQVMLPNEYPGTAPPIYQLNAPWLKGQERADLSNSLEEIYIQNIGESILYLWVEKIRDVLIQKSQMTEPGPDVKKKTEEEDVECEDDLILACQPESSLKALDFDISETRTEVEVEELPPIDHGIPITDRRSTFQAHLAPVVCPKQVKMVLSKLYENKKIASATHNIYAYRIYCEDKQTFLQDCEDDGETAAGGRLLHLMEILNVKNVMVVVSRWYGGILLGPDRFKHINNCARNILVEKNYTNSPEESSKALGKNKKVRKDKKRNEH [IMPACT] | 0.0693 | 0.00643
MAVTLSLLLGGRVCAAVTRCGFATRGVAGPGPIGREPDPDSDWEPEERELQEVESTLKRQKQAIRFQKIRRQMEAPGAPPRTLTWEAMEQIRYLHEEFPESWSVPRLAEGFDVSTDVIRRVLKSKFLPTLEQKLKQDQKVLKKAGLAHSLQHLRGSGNTSKLLPAGHSVSGSLLMPGHEASSKDPNHSTALKVIESDTHRTNTPRRRKGRNKEIQDLEESFVPVAAPLGHPRELQKYSSDSESPRGTGSGALPSGQKLEELKAEEPDNFSSKVVQRGREFFDSNGNFLYRI [NGRN] | 0.784 | 0.276
POMGNT1 | -0.257 | -0.0514
MAAPCLLRQGRAGALKTMLQEAQVFRGLASTVSLSAESGKSEKGQPQNSKKQSPPKKPAPVPAEPFDNTTYKNLQHHDYSTYTFLDLNLELSKFRMPQPSSGRESPRH [NDUFV3] | 0.224 | -0.0477
MTYAYLFKYIIIGDTGVGKSCLLLQFTDKRFQPVHDLTIGVEFGARMVNIDGKQIKLQIWDTAGQESFRSITRSYYRGAAGALLVYDITRRETFNHLTSWLEDARQHSSSNMVIMLIGNKSDLESRRDVKREEGEAFAREHGLIFMETSAKTACNVEEAFINTAKEIYRKIQQGLFDVHNEANGIKIGPQQSISTSVGPSASQRNSRDIGSNSGCC [RAB2B] | -0.221 | -0.115
MDEADRRLLRRCRLRLVEELQVDQLWDALLSRELFRPHMIEDIQRAGSGSRRDQARQLIIDLETRGSQALPLFISCLEDTGQDMLASFLRTNRQAAKLSKPTLENLTPVVLRPEIRKPEVLRPETPRPVDIGSGGFGDVGALESLRGNADLAYILSMEPCGHCLIINNVNFCRESGLRTRTGSNIDCEKLRRRFSSLHFMVEVKGDLTAKKMVLALLELAQQDHGALDCCVVVILSHGCQASHLQFPGAVYGTDGCPVSVEKIVNIFNGTSCPSLGGKPKLFFIQACGGEQKDHGFEVASTSPEDESPGSNPEPDATPFQEGLRTFDQLDAISSLPTPSDIFVSYSTFPGFVSWRDPKSGSWYVETLDDIFEQWAHSEDLQSLLLRVANAVSVKGIYKQMPGCFNFLRKKLFFKTS [CASP9] | 0.32 | -0.0656
MVLKAFFPTCCVSTDSGLLVGRWVPEQSSAVVLAVLHFPFIPIQVKQLLAQVRQASQVGVAVLGTWCHCRQEPEESLGRFLESLGAVFPHEPWLRLCRERGGTFWSCEATHRQAPTAPGAPGEDQVMLIFYDQRQVLLSQLHLPTVLPDRQAGATTASTGGLAAVFDTVARSEVLFRSDRFDEGPVRLSHWQSEGVEASILAELARRASGPICLLLASLLSLVSAVSACRVFKLWPLSFLGSKLSTCEQLRHRLEHLTLIFSTRKAENPAQLMRKANTVASVLLDVALGLMLLSWLHGRSRIGHLADALVPVADHVAEELQHLLQWLMGAPAGLKMNRALDQVLGRFFLYHIHLWISYIHLMSPFVEHILWHVGLSACLGLTVALSLLSDIIALLTFHIYCFYVYGARLYCLKIHGLSSLWRLFRGKKWNVLRQRVDSCSYDLDQLFIGTLLFTILLFLLPTTALYYLVFTLLRLLVVAVQGLIHLLVDLINSLPLYSLGLRLCRPYRLADKPTALQPRGAHLPPPQLWLPPQALLGRPVPQAVPWGAHLPLEAERGQAGLRELLARLAPPHGHSQPSALPGWHQLSWRMSCALWTLLCAPEHGRPCYHTLGLEVIGSEQMWGWPARLAALHHWHCLPWDPLPTCCGHHGGEHSNPRCPEHCPMPTLCTQVQRVRPPQQPQVEGWSPWGLPSGSALAVGVEGPCQDEPPSPRHPLAPSAEQHPASGGLKQSLTPVPSGPGPSLPEPHGVYLRMFPGEVAL [PIGQ] | -0.0206 | -0.119
MEELSSVGEQVFAAECILSKRLRKGKLEYLVKWRGWSSKHNSWEPEENILDPRLLLAFQKKEHEKEVQNRKRGKRPRGRPRKLTAMSSCSRRSKLKEPDAPSKSKSSSSSSSSTSSSSSSDEEDDSDLDAKRGPRGRETHPVPQKKAQILVAKPELKDPIRKKRGRKPLPPEQKATRRPVSLAKVLKTARKDLGAPASKLPPPLSAPVAGLAALKAHAKEACGGPSAMATPENLASLMKGMASSPGRGGISWQSSIVHYMNRMTQSQAQAASRLALKAQATNKCGLGLDLKVRTQKGELGMSPPGSKIPKAPSGGAVEQKVGNTGGPPHTHGASRVPAGCPGPQPAPTQELSLQVLDLQSVKNGMPGVGLLARHATATKGVPATNPAPGKGTGSGLIGASGATMPTDTSKSEKLASRAVAPPTPASKRDCVKGSATPSGQESRTAPGEARKAATLPEMSAGEESSSSDSDPDSASPPSTGQNPSVSVQTSQDWKPTRSLIEHVFVTDVTANLITVTVKESPTSVGFFNLRHY [CBX2] | -0.63 | 0.268
MAEPLLRKTFSRLRGREKLPRKKSDAKERGHPAQRPEPSPPEPEPQAPEGSQAGAEGPSSPEASRSPARGAYLQSLEPSSRRWVLGGAKPAEDTSLGPGVPGTGEPAGEIWYNPIPEEDPRPPAPEPPGPQPGSAESEGLAPQGAAPASPPTKASRTKSPGPARRLSIKMKKLPELRRRLSLRGPRAGRERERAAPAGSVISRYHLDSSVGGPGPAAGPGGTRSPRAGYLSDGDSPERPAGPPSPTSFRPYEVGPAARAPPAALWGRLSLHLYGLGGLRPAPGATPRDLCCLLQVDGEARARTGPLRGGPDFLRLDHTFHLELEAARLLRALVLAWDPGVRRHRPCAQGTVLLPTVFRGCQAQQLAVRLEPQGLLYAKLTLSEQQEAPATAEPRVFGLPLPLLVERERPPGQVPLIIQKCVGQIERRGLRVVGLYRLCGSAAVKKELRDAFERDSAAVCLSEDLYPDINVITGILKDYLRELPTPLITQPLYKVVLEAMARDPPNRVPPTTEGTRGLLSCLPDVERATLTLLLDHLRLVSSFHAYNRMTPQNLAVCFGPVLLPARQAPTRPRARSSGPGLASAVDFKHHIEVLHYLLQSWPDPRLPRQSPDVAPYLRPKRQPPLHLPLADPEVVTRPRGRGGPESPPSNRYAGDWSVCGRDFLPCGRDFLSGPDYDHVTGSDSEDEDEEVGEPRVTGDFEDDFDAPFNPHLNLKDFDALILDLERELSKQINVCL [SYDE1] | 0.269 | 0.106
MMADEEEEVKPILQKLQELVDQLYSFRDCYFETHSVEDAGRKQQDVQKEMEKTLQQMEEVVGSVQGKAQVLMLTGKALNVTPDYSPKAEELLSKAVKLEPELVEAWNQLGEVYWKKGDVAAAHTCFSGALTHCRNKVSLQNLSMVLRQLRTDTEDEHSHHVMDSVRQAKLAVQMDVHDGRSWYILGNSYLSLYFSTGQNPKISQQALSAYAQAEKVDRKASSNPDLHLNRATLHKYEESYGEALEGFSRAAALDPAWPEPRQREQQLLEFLDRLTSLLESKGKVKTKKLQSMLGSLRPAHLGPCSDGHYQSASGQKVTLELKPLSTLQPGVNSGAVILGKVVFSLTTEEKVPFTFGLVDSDGPCYAVMVYNIVQSWGVLIGDSVAIPEPNLRLHRIQHKGKDYSFSSVRVETPLLLVVNGKPQGSSSQAVATVASRPQCE [TTC5] | 0.132 | 0.145
MEPPMEPSGGEQEPGAVRFLDLPWEDVLLPHVLNRVPLRQLLRLQRVSRAFRSLVQLHLAGLRRFDAAQVGPQIPRAALARLLRDAEGLQELALAPCHEWLSDEDLVPVLARNPQLRSVALGGCGQLSRRALGALAEGCPRLQRLSLAHCDWVDGLALRGLADRCPALEELDLTACRQLKDEAIVYLAQRRGAGLRSLSLAVNANVGDAAVQELARNCPELHHLDLTGCLRVGSDGVRTLAEYCPVLRSLRVRHCHHVAESSLSRLRKRGVDIDVEPPLHQALVLLQDMAGFAPFVNLQV [FBXL15] | 0.189 | -0.195
MQARYSVSSPNSLGVVPYLGGEQSYYRAAAAAAGGGYTAMPAPMSVYSHPAHAEQYPGGMARAYGPYTPQPQPKDMVKPPYSYIALITMAIQNAPDKKITLNGIYQFIMDRFPFYRDNKQGWQNSIRHNLSLNECFVKVPRDDKKPGKGSYWTLDPDSYNMFENGSFLRRRRRFKKKDAVKDKEEKDRLHLKEPPPPGRQPPPAPPEQADGNAPGPQPPPVRIQDIKTENGTCPSPPQPLSPAAALGSGSAAAVPKIESPDSSSSSLSSGSSPPGSLPSARPLSLDGADSAPPPPAPSAPPPHHSQGFSVDNIMTSLRGSPQSAAAELSSGLLASAAASSRAGIAPPLALGAYSPGQSSLYSSPCSQTSSAGSSGGGGGGAGAAGGAGGAGTYHCNLQAMSLYAAGERGGHLQGAPGGAGGSAVDDPLPDYSLPPVTSSSSSSLSHGGGGGGGGGGQEAGHHPAAHQGRLTSWYLNQAGGDLGHLASAAAAAAAAGYPGQQQNFHSVREMFESQRIGLNNSPVNGNSSCQMAFPSSQSLYRTSGAFVYDCSKF [FOXC1] | 0.0673 | -0.0439
MASGDFCSPGEGMEILQQVCSKQLPPCNLSKEDLLQNPYFSKLLLNLSQHVDESGLSLTLAKEQAQAWKEVRLHKTTWLRSEILHRVIQELLVDYYVKIQDTNVTSEDKKFHETLEQRLLVTELMRLLGPSQEREIPPLLGLEKADLLELMPLSEDFVWMRARLQQEVEEQLKKKCFTLLCYYDPNSDADSETVKAAKVWKLAEVLVGEQQQCQDAKSQQKEQMLLLEKKSAAYSQVLLRCLTLLQRLLQEHRLKTQSELDRINAQYLEVKCGAMILKLRMEELKILSDTYTVEKVEVHRLIRDRLEGAIHLQEQDMENSRQVLNSYEVLGEEFDRLVKEYTVLKQATENKRWALQEFSKVYR [HAUS4] | 0.377 | -0.0485
